B1: Izumo sperm-egg fusion protein 1 (Homo sapiens), Q8IYV9-1 (parent)
chain: MGPHFTLLCAALAGCLLPAEGCVICDPSVVLALKSLEKDYLPGHLDAKHHKAMMERVENAVKDFQELSLNEDAYMGVVDEATLQKGSWSLLKDLKRITDSDVKGDLFVKELFWMLHLQKETFATYVARFQKEAYCPNKCGVMLQTLIWCKNCKKEVHACRKSYDCGERNVEVPQMEDMILDCELNWHQASEGLTDYSFYRVWGNNTETLVSKGKEATLTKPMVGPEDAGSYRCELGSVNSSPATIINFHVTVLPKMIKEEKPSPNIVTPGEATTESSISLQPLQPEKMLASRLLGLLICGSLALITGLTFAIFRRRKVIDFIKSSLFGLGSGAAEQTQVPKEKATDSRQQ
B2: Sperm-egg fusion protein Juno (Homo sapiens), A6ND01-1 (parent)
chain: MACWWPLLLELWTVMPTWAGDELLNICMNAKHHKRVPSPEDKLYEECIPWKDNACCTLTTSWEAHLDVSPLYNFSLFHCGLLMPGCRKHFIQAICFYECSPNLGPWIQPVGSLGWEVAPSGQGERVVNVPLCQEDCEEWWEDCRMSYTCKSNWRGGWDWSQGKNRCPKGAQCLPFSHYFPTPADLCEKTWSNSFKASPERRNSGRCLQKWFEPAQGNPNVAVARLFASSAPSWELSYTIMVCSLFLPFLS

Consider twelve variants from IntAct's records for PubMed 27309818.

The first test covers variants of B1. Particulars: with IZUMO1R.
With H157A, the “effect of a mutation on the interaction” value was “decreasing interaction strength”.
Same read-out and setting: with W148A the entry was “disrupting interaction strength”; with E71A, “decreasing interaction strength”; with E71K, “decreasing interaction strength”.
Same read-out and setting: in the case of R160A it was “decreasing interaction strength”; in that of R160E, “decreasing interaction strength”.

Another test covers variants of B2. Particulars: with IZUMO1, Q8IYV9-1.
In the case of E45A, the “effect of a mutation on the interaction” value is listed as “decreasing interaction strength”.
The same measure, in the same setting: in the case of E45K it was “decreasing interaction strength”.
Still for that read-out and setting: in the case of K163A it was “decreasing interaction strength”; in that of K163E, “decreasing interaction strength”; in that of L81A, “disrupting interaction strength”.
With W62A, the “effect of a mutation on the interaction” value is “decreasing interaction strength”.
